Assay results as given in patent US20190352359A1 (IMMATICS BIOTECHNOLOGIES, published 2019).

Legend:
HLA-A*24 [1] = target: T1, HLA-A*24; assay: UV peptide-exchange ELISA (anti-b2m); yield grade +++ = >50
T1 construct: Monomers captured on streptavidin plates; also called peptide-receptive MHC molecules; MHC complexes
Description: (§1) Candidate peptides for T cell based therapies according to the present invention were further tested for their MHC binding capacity (affinity). The individual peptide-MHC complexes were produced by UV-ligand exchange, where a UV-sensitive peptide is cleaved upon UV-irradiation, and exchanged with the peptide of interest as analyzed. Only peptide candidates that can effectively bind and stabilize the peptide-receptive MHC molecules prevent dissociation of the MHC complexes. To determine the yield of the exchange reaction, an ELISA was performed based on the detection of the light chain (p2m) of stabilized MHC complexes. The assay was performed as generally described in Rodenko et al. (Rodenko et al., 2006)
(§2) 96 well MAXISorp plates (NUNC) were coated over night with 2 ug/ml streptavidin in PBS at room temperature, washed 4× and blocked for 1 h at 37° C. in 2% BSA containing blocking buffer. Refolded HLA-A*02:01/MLA-001 monomers served as standards, covering the range of 15-500 ng/ml. Peptide-MHC monomers of the UV-exchange reaction were diluted 100-fold in blocking buffer. Samples were incubated for 1 h at 37° C., washed four times, incubated with 2 ug/ml HRP conjugated anti-β2m for 1h at 37° C., washed again and detected with TMB solution that is stopped with […]. Absorption was measured at 450 nm. Candidate peptides that show a high exchange yield (preferably higher than 50%, most preferred higher than 75%) are generally preferred for a generation and production of antibodies or fragments thereof, and/or T cell receptors or fragments thereof, as they show sufficient avidity to the MHC molecules and prevent dissociation of the MHC complexes.

HLA-A*24 [2] = target: T1, HLA-A*24; assay: UV peptide-exchange ELISA (anti-b2m); yield grade ++ = >20%
Description: as §1, §2

Row | Binder | peptide exchange yield (HLA-A*24 [1]) [%] | peptide exchange yield (HLA-A*24 [2]) [%]
1 | KYYIATMAL (also called KYYIATMAL) [CHRNA9-003] | 50 to 75 | 
2 | KALMSAFYTF (also called KALMSAFYTF) [MMP11-022] | 50 to 75 | 
3 | RSMEHPGKLLF (also called RSMEHPGKLLF) [ESR1-010] | 50 to 75 | 
4 | YSLLDPAQF (also called YSLLDPAQF) [SOX14-002] | 50 to 75 | 
5 | KYKQHFPEI (also called KYKQHFPEI) [MAGEB17-001] | 50 to 75 | 
6 | MMVTVVALF (also called MMVTVVALF) [QRFPR-003] | 50 to 75 | 
7 | QYAAAITNGL (also called QYAAAITNGL) [SALL3-002] | 50 to 75 | 
8 | GYFLAQYLM (also called GYFLAQYLM) [TRPM8-008] | 50 to 75 | 
9 | KTKRWLWDF (also called KTKRWLWDF) [COL11A1-004] | 50 to 75 | 
10 | LFDHGGTVFF (also called LFDHGGTVFF) [ANO7-003] | 50 to 75 | 
11 | NYFLDPVTI (also called NYFLDPVTI) [TRI-005] | 50 to 75 | 
12 | FIPVAWLIF (also called FIPVAWLIF) [MRGPRX4-001] | 50 to 75 | 
13 | MHPGVLAAFLF (also called MHPGVLAAFLF) [MMP13-005] | 50 to 75 | 
14 | SYLKDPMIV (also called SYLKDPMIV) [DDX53-001] | 50 to 75 | 
15 | YYIGIVEEY (also called YYIGIVEEY) [HEPHL-007] | 50 to 75 | 
16 | MYNMVPFF (also called MYNMVPFF) [DCT-002] | 50 to 75 | 
17 | IHGIKFHYF (also called IHGIKFHYF) [NMUR2-004] | 50 to 75 | 
18 | FYPDEDDFYF (also called FYPDEDDFYF) [MYCN-002] | 50 to 75 | 
19 | IYIIMQSCW (also called IYIIMQSCW) [FLT3-011] | 50 to 75 | 
20 | MSYSCGLPSL (also called MSYSCGLPSL) [KRT33A-001] | 50 to 75 | 
21 | VYSSFVFNL (also called VYSSFVFNL) [NLRP4-006] | 50 to 75 | 
22 | VLAPVSGQF (also called VLAPVSGQF) [FCRL5-009] | 50 to 75 | 

Row | Binder | peptide exchange yield (HLA-A*24 [1]) [%] | peptide exchange yield (HLA-A*24 [2]) [%]
23 | VYSSFVFNLF (also called VYSSFVFNLF) [NLRP4-007] | 50 to 75 | 
24 | DIYVTGGHLF (also called DIYVTGGHLF) [KLHDC7B-005] | 50 to 75 | 
25 | EAYSYPPATI (also called EAYSYPPATI) [HMCN1-006] | 50 to 75 | 
26 | YIPMSVMLF (also called YIPMSVMLF) [HTR7-002] | 50 to 75 | 
27 | ISMSATEFLL (also called ISMSATEFLL) [CYP1A1-001] | 50 to 75 | 
28 | RYKMLIPF (also called RYKMLIPF) [NLRP2-010] | 50 to 75 | 
29 | LHLYCLNTF (also called LHLYCLNTF) [PGR-003] | 50 to 75 | 
30 | LSCTATPLF (also called LSCTATPLF) [KHDC1L-001] | 50 to 75 | 
31 | RYLIIKYPF (also called RYLIIKYPF) [SUCN-003] | 50 to 75 | 
32 | VCWNPFNNTF (also called VCWNPFNNTF) [RNF183-001] | 50 to 75 | 
33 | QHMLPFWTDL (also called QHMLPFWTDL) [NLRP2-009] | 50 to 75 | 
34 | IYFNHRCF (also called IYFNHRCF) [SFMBT1-001] | 50 to 75 | 
35 | EYSLPVLTF (also called EYSLPVLTF) [PTP-037] | 50 to 75 | 
36 | MDQNQVVWTF (also called MDQNQVVWTF) [ROS-008] | 50 to 75 | 
37 | KQMQEFFGL (also called KQMQEFFGL) [MMP1-010] | 50 to 75 | 
38 | FLPALYSLL (also called FLPALYSLL) [CXCR3-001] | 50 to 75 | 
39 | RILTEFELL (also called RILTEFELL) [TRIM31-001] | 50 to 75 | 
40 | IWAERIMF (also called IWAERIMF) [TDRD1-001] | 50 to 75 | 
41 | NAFEAPLTF (also called NAFEAPLTF) [BRCA2-004] | 50 to 75 | 
42 | KDLMKAYLF (also called KDLMKAYLF) [TXNDC16-006] | 50 to 75 | 
43 | RLGEFVLLF (also called RLGEFVLLF) [TGM6-001] | 50 to 75 | 
44 | SLWREVVTF (also called SLWREVVTF) [CEP250-004] | 50 to 75 | 

Row | Binder | peptide exchange yield (HLA-A*24 [1]) [%] | peptide exchange yield (HLA-A*24 [2]) [%]
45 | VGGNVTSNF (also called VGGNVTSNF) [CT45-004] | 50 to 75 | 
46 | VGGNVTSSF (also called VGGNVTSSF) [CT45-005] | 50 to 75 | 
47 | IYPDSIQEL (also called IYPDSIQEL) [LOC-019] | 50 to 75 | 
48 | YFDENIQKF (also called YFDENIQKF) [HEPHL-006] | 50 to 75 | 
49 | LFQRVSSVSF (also called LFQRVSSVSF) [HMCN1-010] | 50 to 75 | 
50 | SYQEAIQQL (also called SYQEAIQQL) [NEFH-003] | 50 to 75 | 
51 | RIFTARLYF (also called RIFTARLYF) [AICD-001] | 50 to 75 | 
52 | SYVLQIVAI (also called SYVLQIVAI) [PTP-041] | 50 to 75 | 
53 | VYEHNHVSL (also called VYEHNHVSL) [BTBD16-006] | 50 to 75 | 
54 | QYPEFSIEL (also called QYPEFSIEL) [TGM4-001] | 50 to 75 | 
55 | RAMCAMMSF (also called RAMCAMMSF) [TGM4-002] |  | 20 to 50
56 | TDLVQFLLF (also called TDLVQFLLF) [MAGEA10-003] |  | 20 to 50
57 | RALTETIMF (also called RALTETIMF) [ALP-011] |  | 20 to 50
58 | THSGGTNLF (also called THSGGTNLF) [MMP12-019] |  | 20 to 50
59 | SHIGVVLAF (also called SHIGVVLAF) [OR51E2-005] |  | 20 to 50
60 | KYMSRVLFVY (also called KYMSRVLFVY) [CHRNA9-002] |  | 20 to 50
61 | ASAALTGFTF (also called ASAALTGFTF) [SLC45A3-003] |  | 20 to 50
62 | VLASAHILQF (also called VLASAHILQF) [BTBD16-005] |  | 20 to 50
63 | EMFFSPQVF (also called EMFFSPQVF) [ACTL8-002] |  | 20 to 50
64 | GYGLTRVQPF (also called GYGLTRVQPF) [ACTL8-003] |  | 20 to 50
65 | WFFQGAQYW (also called WFFQGAQYW) [MMP11-024] |  | 20 to 50
66 | AQHSLTQLF (also called AQHSLTQLF) [GPC2-002] |  | 20 to 50
